Experimental data taken from PMC9712106.

Legend:
[1] = target: PfRipr (residues 20 to 1086) (P. falciparum) (UniProt O97302); experiment: BLI; PfRipr or PfPTRAMP at 20 μg/ml immobilised on Anti-Penta-His (His1K) biosensors, twofold dilution series of PTRAMP–CSS or PfCSS; 25 °C, PBS pH 7.4, 0.1% BSA, 0.02% Tween-20; 1:1 model
[2] = target: PfPTRAMP (residues 25 to 309) with a C-terminal His-tag (P. falciparum); experiment: as above

Substance	Kd [1] [µM]	Kd [2] [µM]
PTRAMP–CSS heterodimer (disulfide-linked PfPTRAMP 42–309 and PfCSS 20–290) (complex)	3.6	
PfCSS (residues 20 to 290) (domain or fragment)	1.1	19
